Consider three molecules from article PMC6587457, “The green microalga Lobosphaera incisa harbours an arachidonate 15S‐lipoxygenase” (Plant Biology (Stuttgart, Germany), 2018).

One data set has as its target T1, LiLOX (Lobosphaera incisa, UniProt A0A3G6V563).
T1 construct: full length 994 aa; cloned without N-terminal putative plastid signal peptide of 62 residues (ChloroP); N-terminal His tag, pET28a; E. coli BL21 Star; IMAC and SEC
T1 sequence (A0A3G6V563 63-994): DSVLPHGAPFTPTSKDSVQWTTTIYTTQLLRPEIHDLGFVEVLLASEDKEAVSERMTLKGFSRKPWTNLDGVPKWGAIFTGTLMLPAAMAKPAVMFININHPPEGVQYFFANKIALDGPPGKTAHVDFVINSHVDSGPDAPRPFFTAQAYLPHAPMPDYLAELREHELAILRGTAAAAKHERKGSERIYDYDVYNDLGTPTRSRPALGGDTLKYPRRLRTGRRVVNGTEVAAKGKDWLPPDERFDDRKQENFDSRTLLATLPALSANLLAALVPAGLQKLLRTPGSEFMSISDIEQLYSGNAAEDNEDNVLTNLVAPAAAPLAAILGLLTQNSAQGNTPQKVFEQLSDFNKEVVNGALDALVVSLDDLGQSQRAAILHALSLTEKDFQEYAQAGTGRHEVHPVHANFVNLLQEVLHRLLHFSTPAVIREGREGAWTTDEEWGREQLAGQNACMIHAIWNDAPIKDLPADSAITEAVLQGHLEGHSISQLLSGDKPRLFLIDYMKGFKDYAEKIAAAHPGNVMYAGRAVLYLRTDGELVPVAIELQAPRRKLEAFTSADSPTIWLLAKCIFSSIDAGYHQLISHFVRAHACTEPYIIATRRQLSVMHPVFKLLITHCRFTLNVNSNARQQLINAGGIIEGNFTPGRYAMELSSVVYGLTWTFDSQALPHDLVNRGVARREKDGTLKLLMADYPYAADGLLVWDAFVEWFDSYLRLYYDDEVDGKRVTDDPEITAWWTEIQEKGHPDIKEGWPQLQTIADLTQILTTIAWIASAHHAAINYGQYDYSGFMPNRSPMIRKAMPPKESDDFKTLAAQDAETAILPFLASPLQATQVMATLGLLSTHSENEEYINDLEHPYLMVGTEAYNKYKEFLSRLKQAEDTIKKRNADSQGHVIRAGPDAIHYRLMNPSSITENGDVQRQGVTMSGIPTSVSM
The data set is described as follows: absorbance at […] nm (conjugated diene). Type of data set: biochemical. As to conditions: Hill equation fit (not Michaelis-Menten), 20 mM Bis-TRIS propane pH 7.5, 30 °C, 1 μg enzyme, 10-100 μM substrate.

Substrate in the data set “purified protein”: CCCCC/C=C\C/C=C\C/C=C\C/C=C\CCCC(=O)O
The data set is described as follows: purified protein. Type of data set: biochemical, Lobosphaera incisa. As to conditions: Hill equation fit (not Michaelis-Menten), 20 mM Bis-TRIS propane pH 7.5, 30 °C, 1 μg enzyme, 10-100 μM substrate.

Broadly, the Km is the substrate concentration at which the rate is half of its maximum. As a reminder, the kcat is the maximal rate divided by the concentration of active sites. By kcat/Km is commonly meant the second-order rate constant that governs catalysis at low substrate concentration.

Turning to `CCCCC/C=C\C/C=C\CCCCCCCC(=O)O` [18:2(n‐6)], the Michaelis constant (Km) at LiLOX turned out to be 31.2 ± 2.78 µM.

With `CC/C=C\C/C=C\C/C=C\CCCCCCCC(=O)O` [18:3(n‐3)], at LiLOX, the Km was 55.5 ± 4.1 µM.

B1: LiLOX (Lobosphaera incisa) (protein)
chain: DSVLPHGAPFTPTSKDSVQWTTTIYTTQLLRPEIHDLGFVEVLLASEDKEAVSERMTLKGFSRKPWTNLDGVPKWGAIFTGTLMLPAAMAKPAVMFININHPPEGVQYFFANKIALDGPPGKTAHVDFVINSHVDSGPDAPRPFFTAQAYLPHAPMPDYLAELREHELAILRGTAAAAKHERKGSERIYDYDVYNDLGTPTRSRPALGGDTLKYPRRLRTGRRVVNGTEVAAKGKDWLPPDERFDDRKQENFDSRTLLATLPALSANLLAALVPAGLQKLLRTPGSEFMSISDIEQLYSGNAAEDNEDNVLTNLVAPAAAPLAAILGLLTQNSAQGNTPQKVFEQLSDFNKEVVNGALDALVVSLDDLGQSQRAAILHALSLTEKDFQEYAQAGTGRHEVHPVHANFVNLLQEVLHRLLHFSTPAVIREGREGAWTTDEEWGREQLAGQNACMIHAIWNDAPIKDLPADSAITEAVLQGHLEGHSISQLLSGDKPRLFLIDYMKGFKDYAEKIAAAHPGNVMYAGRAVLYLRTDGELVPVAIELQAPRRKLEAFTSADSPTIWLLAKCIFSSIDAGYHQLISHFVRAHACTEPYIIATRRQLSVMHPVFKLLITHCRFTLNVNSNARQQLINAGGIIEGNFTPGRYAMELSSVVYGLTWTFDSQALPHDLVNRGVARREKDGTLKLLMADYPYAADGLLVWDAFVEWFDSYLRLYYDDEVDGKRVTDDPEITAWWTEIQEKGHPDIKEGWPQLQTIADLTQILTTIAWIASAHHAAINYGQYDYSGFMPNRSPMIRKAMPPKESDDFKTLAAQDAETAILPFLASPLQATQVMATLGLLSTHSENEEYINDLEHPYLMVGTEAYNKYKEFLSRLKQAEDTIKKRNADSQGHVIRAGPDAIHYRLMNPSSITENGDVQRQGVTMSGIPTSVSM
notes: full length 994 aa; cloned without N-terminal putative plastid signal peptide of 62 residues (ChloroP); N-terminal His tag, pET28a; E. coli BL21 Star; IMAC and SEC
Turning to B1, in the data set “purified protein”, the K0.5 came out at 12.64 ± 1.1 µM, the turnover number (kcat) came to 10.1 ± 0.454 s⁻¹ and the kcat/Km amounted to 799000 M⁻¹ s⁻¹.
